Among the data in paper PMC7600612 (2020) are Kd, koff and kon values, retold here.

The target of experiment [1] is Human FGF8b (fibroblast growth factor 8, isoform b) (human). Briefly: SPR; Biacore X100; FGF8b covalently attached (amine coupling, 295 RU) to a matrix-free C1 chip; FGFRL1 polypeptides injected at 3.125-50 nM in HBS-EP+ (10 mM HEPES, 150 mM NaCl, 3 mM EDTA, 0.05% P20, pH 7.4), 30 μL/min, 120 s association, 240 s dissociation; global kinetic fit to a 1:1 model. A general note: SPR reads the build-up and loss of mass on a sensor chip optically.

A further experiment has as its target FGFR1 (Homo sapiens) (UniProt P11362). To be noted: cited from earlier work.
A further experiment concerns the target FGFR2 (Homo sapiens) (UniProt P21802). As to conditions: cited from earlier work.
The target of a further experiment is FGFRL1 (Homo sapiens) (UniProt Q8N441). To be noted: cited from earlier work.
In a further experiment the target is T1, FGFRL1 Ig2 (Homo sapiens, UniProt Q8N441).
T1 chain: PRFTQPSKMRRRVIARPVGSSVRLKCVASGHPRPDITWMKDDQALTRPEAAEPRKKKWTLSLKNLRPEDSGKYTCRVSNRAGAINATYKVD
As to the kind of experiment: SPR.

FGFRL1 (Homo sapiens), sequence (Q8N441 25-378): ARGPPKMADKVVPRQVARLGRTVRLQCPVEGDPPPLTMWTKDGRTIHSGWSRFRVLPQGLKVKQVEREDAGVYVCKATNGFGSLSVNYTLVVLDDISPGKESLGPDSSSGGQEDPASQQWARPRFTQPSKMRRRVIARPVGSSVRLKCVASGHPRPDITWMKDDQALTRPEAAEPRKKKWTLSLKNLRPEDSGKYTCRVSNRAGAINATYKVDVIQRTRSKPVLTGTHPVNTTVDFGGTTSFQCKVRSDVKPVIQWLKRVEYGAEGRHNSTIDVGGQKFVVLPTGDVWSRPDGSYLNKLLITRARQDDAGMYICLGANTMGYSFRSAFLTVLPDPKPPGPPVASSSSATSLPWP
FGFR2 (Homo sapiens), sequence (P21802 22-377): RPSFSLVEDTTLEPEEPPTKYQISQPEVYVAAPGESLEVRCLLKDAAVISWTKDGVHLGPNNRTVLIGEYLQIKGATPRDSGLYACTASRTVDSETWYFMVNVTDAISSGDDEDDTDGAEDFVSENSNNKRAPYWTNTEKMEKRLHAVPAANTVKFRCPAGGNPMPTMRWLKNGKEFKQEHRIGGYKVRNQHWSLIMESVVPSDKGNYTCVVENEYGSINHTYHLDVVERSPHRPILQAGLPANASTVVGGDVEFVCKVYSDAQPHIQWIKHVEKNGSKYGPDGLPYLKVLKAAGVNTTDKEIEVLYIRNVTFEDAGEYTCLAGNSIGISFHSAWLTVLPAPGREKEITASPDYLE
FGFR1 (Homo sapiens), sequence (P11362 22-822 P252R): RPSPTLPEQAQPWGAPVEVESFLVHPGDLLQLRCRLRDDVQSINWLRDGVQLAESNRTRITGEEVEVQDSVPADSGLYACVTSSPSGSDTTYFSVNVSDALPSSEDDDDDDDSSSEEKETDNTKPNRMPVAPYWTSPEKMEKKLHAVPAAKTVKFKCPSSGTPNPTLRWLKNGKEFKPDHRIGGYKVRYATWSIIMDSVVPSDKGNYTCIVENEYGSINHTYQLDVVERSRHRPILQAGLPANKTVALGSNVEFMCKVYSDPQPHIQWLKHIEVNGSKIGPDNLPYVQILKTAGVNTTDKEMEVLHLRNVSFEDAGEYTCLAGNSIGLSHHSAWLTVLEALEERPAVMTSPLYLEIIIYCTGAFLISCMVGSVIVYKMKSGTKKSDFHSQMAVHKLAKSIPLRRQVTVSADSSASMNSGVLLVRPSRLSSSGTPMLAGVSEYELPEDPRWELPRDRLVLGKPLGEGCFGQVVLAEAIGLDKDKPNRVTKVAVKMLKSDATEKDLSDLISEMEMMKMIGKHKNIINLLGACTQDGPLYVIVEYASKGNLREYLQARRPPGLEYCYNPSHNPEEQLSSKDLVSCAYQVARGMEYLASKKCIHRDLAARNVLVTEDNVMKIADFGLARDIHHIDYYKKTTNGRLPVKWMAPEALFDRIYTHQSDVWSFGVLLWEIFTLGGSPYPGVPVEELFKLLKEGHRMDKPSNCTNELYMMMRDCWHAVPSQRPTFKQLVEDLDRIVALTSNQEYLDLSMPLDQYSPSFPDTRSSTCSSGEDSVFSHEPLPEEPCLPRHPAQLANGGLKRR

One may read the Kd as the constant that tells how readily two partners part at equilibrium. The koff is the first-order rate constant of dissociation. High values mean fast dissociation, low ones slow dissociation. By kon is commonly meant a measure of how fast the partners come together. In experiment [1], “FGFRL1 Ig12 construct (from UniProt Q8N441 25-239) (domain or fragment)” had a Kd of 1.94 nM, a koff of 0.0107 s⁻¹ and a kon of 5.49e+06 M⁻¹ s⁻¹.

In experiment [1], “FGFRL1 Ig2 construct (from UniProt Q8N441 25-26; Q8N441 118-239) (domain or fragment)” returned a Kd of 1.73 nM, a koff of 0.0092 s⁻¹ and an association rate constant (kon) of 5.32e+06 M⁻¹ s⁻¹.

In experiment [1], “FGFRL1 Ig123 (complete extracellular domain of human fibroblast growth factor receptor-like protein 1) (from UniProt Q8N441 25-359) (domain or fragment)” came in with a Kd of 3.37 nM, a koff of 0.00126 s⁻¹ and a kon of 373000 M⁻¹ s⁻¹.

Regarding FGF2 (from UniProt P09038), the Kd with FGFR1 (Homo sapiens) is 24 nM.

As to FGF8 (from UniProt P55075), the Kd with FGFR2 (Homo sapiens) was 130 nM.

In the case of FGF3 (from UniProt P11487), in the experiment with FGFRL1 (Homo sapiens), the Kd is 4.2 nM.

“FGFRL1 Ig23 construct (from UniProt Q8N441 25-26; Q8N441 118-357) (domain or fragment)”: in experiment [1], the Kd stood at 2.07 nM, the koff amounted to 0.000806 s⁻¹ and the on-rate constant (kon) amounted to 390000 M⁻¹ s⁻¹.

B1: FGF8 (protein)
chain: QEGPGRGPALGRELASLFRAGREPQGVSQQHVREQSLVTDQLSRRLIRTYQLYSRTSGKHVQVLANKRINAMAEDGDPFAKLIVETDTFGSRVRVRGAETGLYICMNKKGKLIAKSNGKGKDCVFTEIVLENNYTALQNAKYEGWYMAFTRKGRPRKGSKTRQHQREVHFMKRLPRGHHTTEQSLRFEFLNYPPFTRSLRGSQRTWAPEPR
B1 showed a Kd in the experiment with FGFRL1 Ig2 of 1.7 nM.
